Common to all, as to conditions: both partners purified
Assay [1] concerns the target Pfs48/45-D2 + 3 (central and C-terminal domains) (Plasmodium falciparum, UniProt Q8I6T1). As to the kind of experiment: crystal structure.
The target in assay [2] is T1, Pfs48/45 full-length ectodomain (Plasmodium falciparum, UniProt Q8I6T1). Kind of assay: negative stain electron microscopy.
The target of assay [3] is T1, Pfs48/45 full-length ectodomain. Kind of assay: SPR. (In general: In SPR one partner is held on a chip, and binding of the other changes the refractive index at the surface.)
Assay [4] has as its target Pfs48/45-D3 (C-terminal 6-cys domain of Pfs48/45) (Plasmodium falciparum 3D7 …, UniProt Q8I6T1). Kind of assay: SPR.

The results in this text go back to PMC9509318 (Nature Communications, 2022).

T1 sequence (Q8I6T1 27-427): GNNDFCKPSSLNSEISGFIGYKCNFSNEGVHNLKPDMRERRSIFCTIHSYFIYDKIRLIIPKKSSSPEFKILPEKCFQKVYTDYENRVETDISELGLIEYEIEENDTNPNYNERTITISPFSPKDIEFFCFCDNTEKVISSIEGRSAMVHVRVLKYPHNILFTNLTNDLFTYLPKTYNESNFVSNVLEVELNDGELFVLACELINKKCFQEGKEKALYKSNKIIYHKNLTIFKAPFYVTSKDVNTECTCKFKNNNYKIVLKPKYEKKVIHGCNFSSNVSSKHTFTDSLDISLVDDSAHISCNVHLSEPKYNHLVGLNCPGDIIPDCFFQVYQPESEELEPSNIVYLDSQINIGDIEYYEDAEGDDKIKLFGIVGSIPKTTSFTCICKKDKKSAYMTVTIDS
Sequence of Pfs48/45-D2 + 3 (central and C-terminal domains) (Q8I6T1 159-428): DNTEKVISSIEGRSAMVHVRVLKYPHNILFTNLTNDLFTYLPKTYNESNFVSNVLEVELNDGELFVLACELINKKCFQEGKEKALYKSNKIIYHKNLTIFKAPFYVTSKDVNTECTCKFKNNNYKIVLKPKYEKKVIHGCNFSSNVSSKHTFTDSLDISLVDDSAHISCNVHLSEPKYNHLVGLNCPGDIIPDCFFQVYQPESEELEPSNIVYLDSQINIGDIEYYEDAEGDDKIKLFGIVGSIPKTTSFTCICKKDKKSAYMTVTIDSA
Sequence of Pfs48/45-D3 (C-terminal 6-cys domain of Pfs48/45) (Q8I6T1 291-428): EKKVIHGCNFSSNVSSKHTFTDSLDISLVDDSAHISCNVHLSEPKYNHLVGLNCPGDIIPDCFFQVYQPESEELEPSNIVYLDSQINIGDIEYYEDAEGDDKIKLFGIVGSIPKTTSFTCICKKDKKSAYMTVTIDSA

B1: 10D8 Fab fragment (Fab, V domains shown)
VH: EVMLVESGGDLVKPGGSLKVSCAASGFTFSNYAMSWVRQTPEKRLEWVATISSGASYTHYPDSVKGRFTISRDNAKNTLYLQMSSLRSEDTAMYYCGRQVNRHDRALDAMDYWGQGTSVTVSP
VL: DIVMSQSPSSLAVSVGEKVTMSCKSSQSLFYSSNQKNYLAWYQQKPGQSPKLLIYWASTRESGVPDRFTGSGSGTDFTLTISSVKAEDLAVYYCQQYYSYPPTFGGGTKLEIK
notes: source: hybridoma cell line, purified using protein A/G, ficin cleaved to Fab
In the case of B1, the binding result in assay [1] and in assay [2] was “binds” each time.

B2: 10D8 monoclonal antibody (antibody, V domains shown)
VH: EVMLVESGGDLVKPGGSLKVSCAASGFTFSNYAMSWVRQTPEKRLEWVATISSGASYTHYPDSVKGRFTISRDNAKNTLYLQMSSLRSEDTAMYYCGRQVNRHDRALDAMDYWGQGTSVTVSP
VL: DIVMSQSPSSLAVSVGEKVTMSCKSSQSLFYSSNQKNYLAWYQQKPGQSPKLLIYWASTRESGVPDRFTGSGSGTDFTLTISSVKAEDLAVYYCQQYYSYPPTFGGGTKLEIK
notes: source: hybridoma cell line, purified using protein A/G
Consider B2, for which the binding result in assay [3] was “binds”.

B3: 32F3 monoclonal antibody (antibody, V domains shown)
VH: DVKLVESGGGLVKLGGSLKLSCAASGFTFSSYYMSWVRQTPEKRLELVAAINNNGGSTYYPDTVKGRFTISRDNAKNTLNLQMNSLKSEDTALYYCTRQHYGNLYFFDYWGQGTTLTVSS
VL: QIVLSQSPAILSASPGEKVTMTCRASSSVTYIHWYQQKPGSSPKPWIQATSSLASGVPARFSGSGSGTSYSLSISRVEAEDAATYYCQQWSSNPLTFGAGTKLELK
notes: as for B2
One may read the Kd as the equilibrium constant for the complex coming apart. High values mean lower affinity, low ones higher affinity. With B3, in assay [4], the Kd stood at 5.2 nM.
